Data reported in US20050227306A1, “Fluorescence polarization assay to detect protease cleavage” (priority 2003, published 2005).

Assays:
Assay type in all cases: biochemical, E. coli
[1] = tested on: substrate 21-F (His6-tetraCys-X-MBP); experiment: Fluorescence anisotropy proteolysis assay with substrate 21-F; settings: initial rate by fluorescence anisotropy, normalized to the rate of the protease with its preferred cognate substrate
Excerpt: (§1) All protease substrates were expressed in E. coli Rosetta pLacI Rare to provide compensation for rare codons (see Kirienko et al. (2004) Biochemistry (Mosc) 69:527-535; available commercially from Novagen, a wholly-owned subsidiary of EMD Biosciences, Inc., Madison, Wis.). The expression was done in 2-L PET bottles (Millard et al. (2003) Protein Expr. Purif. 29:311-320). The protein purification followed typical IMAC purification procedures (see Sambrook & Russell, supra) including elution in an imidazole gradient from 0-350 mM. After SDS-PAGE analysis, appropriate fractions were pooled and desalted into 20 mM phosphate, pH 7.5, containing 100 mM NaCl and 0.3 mM TCEP. […]
(§2) Protease assays were conducted using a combination of 20 μM unlabeled and 40 nM labeled protease substrates unless noted otherwise. […] This decreased the amount of time between mixing and measurement to less than three minutes and allowed the fluorescence anisotropy measured at the first time point to closely approximate the anisotropy of the intact fusion protein. […]
(§3) Fluorescence anisotropy was measured using a Tecan 384 Ultra plate spectrofluorimeter. Excitation was at 485 nm (25 nm bandpass) and emission was measured at 525 nm (20 nm bandpass). […] See J. Lakowicz, “Principles of fluorescence spectroscopy,” Kluwer Academic/Plenum Publishers, New York, 1999. […]

[2] = tested on: substrate 22-F (His6-tetraCys-X-MBP); experiment: Fluorescence anisotropy proteolysis assay with substrate 22-F; settings: initial rate by fluorescence anisotropy, normalized to the rate of the protease with its preferred cognate substrate
Excerpt: as §1, §2, §3

[3] = tested on: substrate 23-F (His6-tetraCys-X-MBP); experiment: Fluorescence anisotropy proteolysis assay with substrate 23-F; settings: for Relative rate of reaction, substrate 23F: initial rate by fluorescence anisotropy, normalized to the rate of the protease with its preferred cognate substrate
Excerpt: as §1, with “TCEP. Proteins were concentrated to a final concentration of 300-600 μM using centrifugal concentrators. Glycerol (50% v/v) was added to all protease substrates except 26-F and frozen at −20° C. The Arabidopsis targets At3g03410 (expressed from pVP14) and At3g16990 (expressed from pVP15) were flash frozen as drops in liquid nitrogen and stored at −80° C.” for “TCEP.”
as §2
(§4) Fluorescence anisotropy was measured using a Tecan 384 Ultra plate spectrofluorimeter. Excitation was at 485 nm (25 nm bandpass) and emission was measured at 525 nm (20 nm bandpass). […] The observed anisotropy is the sum of the anisotropy of the individual fluorescent components, or robs=Σfiri, where robs, is the observed anisotropy, fi is the fractional fluorescence intensity of component i, and ri is the anisotropy of component i. See J. Lakowicz, “Principles of fluorescence spectroscopy,” Kluwer Academic/Plenum Publishers, New York, 1999. […]

[4] = tested on: substrate 24-F (His6-tetraCys-X-MBP); experiment: Fluorescence anisotropy proteolysis assay with substrate 24-F; settings: initial rate by fluorescence anisotropy, normalized to the rate of the protease with its preferred cognate substrate
Excerpt: as §1, §2, §3

[5] = tested on: substrate 25-F (His6-tetraCys-X-MBP); experiment: Fluorescence anisotropy proteolysis assay with substrate 25-F; settings: initial rate by fluorescence anisotropy, normalized to the rate of the protease with its preferred cognate substrate
Excerpt: as §1, §2, §3

[6] = tested on: substrate 26-F (His6-tetraCys-X-MBP); experiment: Fluorescence anisotropy proteolysis assay with substrate 26-F; settings: for Relative rate of reaction, substrate 26F: initial rate by fluorescence anisotropy, normalized to the rate of the protease with its preferred cognate substrate
Excerpt: as §1, with “TCEP. Proteins were concentrated to a final concentration of 300-600 μM using centrifugal concentrators. Glycerol (50% v/v) was added to all protease substrates except 26-F and frozen at −20° C. The Arabidopsis targets At3g03410 (expressed from pVP14) and At3g16990 (expressed from pVP15) were flash frozen as drops in liquid nitrogen and stored at −80° C.” for “TCEP.”
as §2, §4

[7] = tested on: substrate 21-F (His6-tetraCys-X-MBP); experiment: SDS-PAGE analysis of proteolysis of substrate 21-F; settings: incubated 16 h (overnight)
Procedure: FIG. 22 is a photograph of a gel depicting SDS-PAGE analysis of protease substrates incubated with Factor Xa and TEV protease for 16 h. Lane M, molecular weight standards of 31 and 45 kDa. Lanes 1-5, Factor Xa with substrates 21-F, 22-F, 23-F, 24-F and 25-F, respectively. Lanes 6-10, trypsin with substrates 21-F, 22-F, 23-F, 24-F and 25-F, respectively. Lanes 11-14, TEV protease with substrates 21-F, 22-F, 23-F and 24-F, respectively.
The intensity of protein bands in SDS-PAGE gels was determined using Image J-brand software, version 1.30. This is a public domain program that can be obtained from the National Institutes of Health (Bethesda, Md.).
SDS-PAGE analysis with Coomassie staining was performed to further evaluate the predicted low rates of substrate dependent non-specific proteolysis.

B1: TEV: tobacco etch virus protease (protein)
chain: GESLFKGPRDYNPISSTICHLTNESDGHTTSLYGIGFGPFIITNKHLFRRNNGTLLVQSLHGVFKVKNTTTLQQHLIDGRDMIIIRMPKDFPPFPQKLKFREPQREERICLVTTNFQTKSMSSMVSDTSCTFPSSDGIFWKHWIQTKDGQCGSPLVSTRDGFIVGIHSASNFTNTNNYFTSVPKNFMELLTNQEAQQWVSGWRLNADSVLWGGHKVFMSKPEEPFQPVKEATQLMNELVYSQ
[1]
  Relative rate of reaction, substrate 21F: 0.01
[2]
  Relative rate of reaction, substrate 22F: 0.0
[3]
  Relative rate of reaction, substrate 23F: −0.02
[4]
  Relative rate of reaction, substrate 24F: −0.01
[5]
  Relative rate of reaction, substrate 25F: 0.0
[6]
  Relative rate of reaction, substrate 26F: 1
[6]; substrate 26-F, slope of initial rate versus protease concentration, errors two standard deviations
  Specific reaction rate: 17.3±0.7 moles substrate proteolyzed per mole of protease per hour
[7]
  Proteolysis of substrate 21-F by SDS-PAGE with Coomassie staining: minor amount of proteolysis

B2: Enterokinase: commercial protease used for removing fusion tags (protein, UniProt P98072 2-800; P98072 801-1035, looked up)
Enteropeptidase non-catalytic …: GSKRSVPSRHRSLTTYEVMFAVLFVILVALCAGLIAVSWLSIQGSVKDAAFGKSHEARGTLKIISGATYNPHLQDKLSVDFKVLAFDIQQMIDDIFQSSNLKNEYKNSRVLQFENGSIIVIFDLLFDQWVSDKNVKEELIQGIEANKSSQLVTFHIDLNSIDITASLENFSTISPATTSEKLTTSIPLATPGNVSIECPPDSRLCADALKCIAIDLFCDGELNCPDGSDEDNKTCATACDGRFLLTGSSGSFEALHYPKPSNNTSAVCRWIIRVNQGLSIQLNFDYFNTYYADVLNIYEGMGSSKILRASLWSNNPGIIRIFSNQVTATFLIQSDESDYIGFKVTYTAFNSKELNNYEKINCNFEDGFCFWIQDLNDDNEWERTQGSTFPPSTGPTFDHTFGNESGFYISTPTGPGGRRERVGLLTLPLDPTPEQACLSFWYYMYGENVYKLSINISSDQNMEKTIFQKEGNYGQNWNYGQVTLNETVEFKVSFYGFKNQILSDIALDDISLTYGICNVSVYPEPTLVPTPPPELPTDCGGPHDLWEPNTTFTSINFPNSYPNQAFCIWNLNAQKGKNIQLHFQEFDLENIADVVEIRDGEGDDSLFLAVYTGPGPVNDVFSTTNRMTVLFITDNMLAKQGFKANFTTGYGLGIPEPCKEDNFQCKDGECIPLVNLCDGFPHCKDGSDEAHCVRLFNGTTDSSGLVQFRIQSIWHVACAENWTTQISDDVCQLLGLGTGNSSVPTFSTGGGPYVNLNTAPNGSLILTPSQQCLEDSLILLQCNYKSCGKKLVTQEVSPK
Enteropeptidase catalytic …: IVGGSDSREGAWPWVVALYFDDQQVCGASLVSRDWLVSAAHCVYGRNMEPSKWKAVLGLHMASNLTSPQIETRLIDQIVINPHYNKRRKNNDIAMMHLEMKVNYTDYIQPICLPEENQVFPPGRICSIAGWGALIYQGSTADVLQEADVPLLSNEKCQQQMPEYNITENMVCAGYEAGGVDSCQGDSGGPLMCQENNRWLLAGVTSFGYQCALPNRPGVYARVPRFTEWIQSFLH
[1]
  Relative rate of reaction, substrate 21F: 0.5
[2]
  Relative rate of reaction, substrate 22F: 1.3
[3]
  Relative rate of reaction, substrate 23F: 1
[3]; substrate 23-F, per supplier's reported activity unit
  Specific reaction rate: 0.130±0.007 nmole substrate proteolyzed per unit enzyme per hour
[4]
  Relative rate of reaction, substrate 24F: 0.2
[6]
  Relative rate of reaction, substrate 26F: 1
